# Experimental data taken from paper PMC9233711, “Wiskott-Aldrich syndrome protein forms nuclear condensates and regulates alternative splicing” (Nature Communications, 2022).
# T1: recombinant human full-length SRSF2, N-terminally 8X histidine- and SUMO-tagged and C-terminus Strep-tagged (human, UniProt Q01130 1-221, RED-tris-NTA dye on the His tag)
# T1 chain: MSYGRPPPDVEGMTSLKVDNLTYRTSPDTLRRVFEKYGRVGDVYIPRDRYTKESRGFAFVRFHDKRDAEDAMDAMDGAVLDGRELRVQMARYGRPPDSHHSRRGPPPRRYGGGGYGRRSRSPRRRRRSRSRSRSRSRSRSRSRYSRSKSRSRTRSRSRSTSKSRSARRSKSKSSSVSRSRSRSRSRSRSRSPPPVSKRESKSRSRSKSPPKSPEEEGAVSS
# T2: recombinant WASP, full-length (1-502 a.a.) with a GST tag at the N-terminus (human, UniProt P42768 1-502)
# T2 construct: Wiskott-Aldrich syndrome protein (WASP), human, full-length protein, 1-502 a.a; source: bought: Abnova (in vitro wheat germ expression system, purified by Glutathione Sepharose 4 Fast Flow); not shown: GST, N-terminal, kept
# T2 sequence (looked up): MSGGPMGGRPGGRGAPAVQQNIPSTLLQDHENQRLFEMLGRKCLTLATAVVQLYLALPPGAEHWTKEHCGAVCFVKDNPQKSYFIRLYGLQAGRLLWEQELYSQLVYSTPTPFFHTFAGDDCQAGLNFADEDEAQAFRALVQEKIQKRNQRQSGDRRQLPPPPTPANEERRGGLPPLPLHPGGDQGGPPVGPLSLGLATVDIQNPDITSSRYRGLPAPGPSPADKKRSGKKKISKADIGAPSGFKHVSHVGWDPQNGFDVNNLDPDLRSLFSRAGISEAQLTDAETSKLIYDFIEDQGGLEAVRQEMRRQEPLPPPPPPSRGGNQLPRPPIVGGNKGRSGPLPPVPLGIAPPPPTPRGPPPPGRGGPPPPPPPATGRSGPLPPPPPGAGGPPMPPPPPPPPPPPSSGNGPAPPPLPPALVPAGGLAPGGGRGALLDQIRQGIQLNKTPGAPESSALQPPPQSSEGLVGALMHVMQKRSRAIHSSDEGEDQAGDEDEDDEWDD
# Key:
# [1] = target: T1, recombinant human full-length SRSF2, …; assay: MST
# [2] = target: T2, recombinant WASP, full-length (1-502 …); assay: MST; Monolith NT.115; SRSF2 labelled with RED-tris-NTA at 1 nM, WASP titrated 90 pM to 3 µM; 50 mM HEPES pH 7.5, 10 mM MgCl2, 100 mM KCl, 0.1 mg/ml BSA, 5% glycerol, 1 mM DTT; settings: both partners purified
Kd [1],binding result [2],Binder
211 nM,–,"recombinant WASP, full-length (1-502 a.a.) with a GST tag at the N-terminus (natural protein) MSGGPMGGRPGGRGAPAVQQNIPSTLLQDHENQRLFEMLGRKCLTLATAVVQLYLALPPGAEHWTKEHCGAVCFVKDNPQKSYFIRLYGLQAGRLLWEQELYSQLVYSTPTPFFHTFAGDDCQAGLNFADEDEAQAFRALVQEKIQKRNQRQSGDRRQLPPPPTPANEERRGGLPPLPLHPGGDQGGPPVGPLSLGLATVDIQNPDITSSRYRGLPAPGPSPADKKRSGKKKISKADIGAPSGFKHVSHVGWDPQNGFDVNNLDPDLRSLFSRAGISEAQLTDAETSKLIYDFIEDQGGLEAVRQEMRRQEPLPPPPPPSRGGNQLPRPPIVGGNKGRSGPLPPVPLGIAPPPPTPRGPPPPGRGGPPPPPPPATGRSGPLPPPPPGAGGPPMPPPPPPPPPPPSSGNGPAPPPLPPALVPAGGLAPGGGRGALLDQIRQGIQLNKTPGAPESSALQPPPQSSEGLVGALMHVMQKRSRAIHSSDEGEDQAGDEDEDDEWDD"
–,binds,"recombinant human full-length SRSF2, N-terminally 8X histidine- and SUMO-tagged and C-terminus Strep-tagged (natural protein, UniProt Q01130 1-221, looked up, RED-tris-NTA dye on the His tag, No tag cleavage step is described in the purification, so SUMO and Strep were probably still on the protein; The MST methods call it His6-tagged, the expression methods 8X histidine; also called His6-tagged SRSF2; recombinant SRSF2; source: E. coli BL21 (DE3), purified (HisTrap HP, dialysis); not shown: His8, N-terminal, kept) MSYGRPPPDVEGMTSLKVDNLTYRTSPDTLRRVFEKYGRVGDVYIPRDRYTKESRGFAFVRFHDKRDAEDAMDAMDGAVLDGRELRVQMARYGRPPDSHHSRRGPPPRRYGGGGYGRRSRSPRRRRRSRSRSRSRSRSRSRSRYSRSKSRSRTRSRSRSTSKSRSARRSKSKSSSVSRSRSRSRSRSRSRSPPPVSKRESKSRSRSKSPPKSPEEEGAVSS"
